Results on 8 molecules are retold here after patent US20180022822A1 (MABIMMUNE DIAGNOSTICS, published 2018).

Changes are numbered by the printed parent chain.

In test [1] the target is T1, recombinant human Fibroblast Activation Protein (FAP) with N-terminus 6x histidine tag (human, UniProt Q12884 26-760).
T1 construct: Bought protein; also called rFAP; rhFAP
T1 sequence: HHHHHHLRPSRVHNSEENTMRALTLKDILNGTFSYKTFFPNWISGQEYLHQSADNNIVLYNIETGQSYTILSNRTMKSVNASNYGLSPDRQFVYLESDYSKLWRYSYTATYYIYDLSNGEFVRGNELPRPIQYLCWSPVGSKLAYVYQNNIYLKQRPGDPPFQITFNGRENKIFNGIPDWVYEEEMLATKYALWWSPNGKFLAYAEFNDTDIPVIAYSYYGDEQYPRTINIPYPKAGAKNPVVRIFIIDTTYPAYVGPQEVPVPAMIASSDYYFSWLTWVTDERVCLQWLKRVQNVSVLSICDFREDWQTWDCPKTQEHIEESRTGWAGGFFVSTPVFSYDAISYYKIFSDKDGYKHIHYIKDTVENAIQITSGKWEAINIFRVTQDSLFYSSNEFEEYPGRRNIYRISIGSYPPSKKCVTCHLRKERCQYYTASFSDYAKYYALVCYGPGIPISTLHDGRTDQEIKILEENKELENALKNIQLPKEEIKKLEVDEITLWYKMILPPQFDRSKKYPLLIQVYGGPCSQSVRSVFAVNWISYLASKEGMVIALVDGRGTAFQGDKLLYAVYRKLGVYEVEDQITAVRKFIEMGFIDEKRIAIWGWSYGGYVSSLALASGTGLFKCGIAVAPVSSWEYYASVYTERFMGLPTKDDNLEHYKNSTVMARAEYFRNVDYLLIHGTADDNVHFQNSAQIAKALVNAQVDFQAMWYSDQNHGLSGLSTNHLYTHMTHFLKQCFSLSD
Nature of the test: capture ELISA: His-tagged rFAP captured by coated anti-His antibody (sFAP). As to the method:
(§1) For the capture ELISA, the microplates were coated with mouse anti-His monoclonal antibody (Clontech) diluted to a concentration of 3 μg/ml in PBS, the plates were then blocked, FAP or BSA were diluted to a concentration of 2 μg/ml in PBS and added to the plates to be captured. The binding efficiency of the antibodies was then tested.
The EC₅₀ values were estimated by a non-linear regression using GraphPad Prism (San Diego, USA) software.
On the technique in general: An ELISA detects its analyte on a solid surface through an enzyme-linked reagent.

In test [2] the target is T2, cFAP (mixture of three FAP peptides) (human).
T2 construct: A mixture of three separate peptides coated together, not a complex; The three chains are the three components; also called directly coated FAP peptides mixture
T2 peptide 1: HYIKDTVENAIQITS
T2 peptide 2: GWSYGGYVSSLALAS
T2 peptide 3: QVDFQAMWYSDQNHGL
The test can be described thus: direct ELISA: coated mixture of three FAP peptides (cFAP).

Test [3] has as its target T1, recombinant human Fibroblast Activation …. The test can be described thus: direct ELISA: rFAP directly coated (FAP).
Test [4] shares this target. The test can be described thus: capture ELISA: His-tagged rFAP captured by coated anti-His antibody (anti-His+rFAP), antibody titrated, OD 450 nm [continued) I]. As for the experimental part: as §1
Test [5] has the same target. Nature of the test: direct ELISA: rFAP coated directly on the plate, antibody titrated, OD 450 nm [continued) J].
Test [6] has as its target T3, bovine serum albumin (BSA) (bovine, UniProt P02769 25-607).
T3 construct: Negative control antigen in the ELISAs
The test can be described thus: direct ELISA: BSA coated directly on the plate [continued) D].

Test [7] deals with T1, recombinant human Fibroblast Activation …. Nature of the test: capture ELISA: His-tagged rFAP captured by coated anti-His antibody (anti-His+rFAP), antibody titrated, OD 450 nm [continued) E]. As for the experimental part:
as §1

Test [8] concerns the target T3, bovine serum albumin (BSA). The test can be described thus: direct ELISA: BSA coated directly on the plate [continued) F].
The target of test [9] is T1, recombinant human Fibroblast Activation …. The test can be described thus: direct ELISA: rFAP coated directly on the plate, antibody titrated, OD 450 nm [continued) F].
Test [10] addresses T4, FAP peptide 125 (497-ALKNIQLPKEEIKKL-511) (human).
T4 construct: Linear 15-mer spotted on a nitrocellulose membrane
T4 peptide: ALKNIQLPKEEIKKL
The test can be described thus: pepscan, spotted 15-mer peptides. As to the method:
(§2) Binding capacity of the antibodies was tested on these peptides spotted onto a nitrocellulose membrane (JPT Peptide Technologies, Berlin, Germany) and using HRP-conjugated donkey anti-human IgG secondary antibody (Jackson immunoResearch, Newmarket, UK) followed by detection of HRP activity (FIGS. 4A and C). In brief, epitope mapping was performed using scans of overlapping peptides. The entire sequences of FAP were synthesized as a total of 188 linear 15-mer peptides with an 11 amino acid overlap between individual peptides. Those peptides were spotted onto nitrocellulose membranes (JPT Peptide Technologies, Berlin, Germany). The membrane was activated for 5 min in methanol and washed in TBS for 10 min at RT. Non-specific binding sites were blocked for 2 h at RT with Roti®-Block (Carl Roth GmbH+Co. KG, Karlsruhe, Germany). Human antibodies (1 μg/ml) were incubated in Roti®-Block for 3 h at RT. Binding of primary antibody was determined using HRP-conjugated donkey anti-human IgG secondary antibody. Blots were developed and evaluated using ECL and ImageQuant 350 detection (GE Healthcare, Otelfingen, Switzerland).

For test [11], the target named is T5, FAP peptide 126 (501-IQLPKEEIKKLEVDE-515) (human).
T5 construct: Linear 15-mer spotted on a nitrocellulose membrane
T5 peptide: IQLPKEEIKKLEVDE
Nature of the test: pepscan, spotted 15-mer peptides. As for the experimental part:
as §2

Test [12] has as its target T1, recombinant human Fibroblast Activation …. The test can be described thus: direct ELISA: rFAP directly coated.
For test [13] the target is unchanged. Nature of the test: capture ELISA: His-tagged rFAP captured by coated anti-His antibody (anti-His+rFAP), antibody titrated, OD 450 nm; the curve reaches no upper plateau [continued) G]. As for the experimental part:
as §1

The target is the same in test [14]. The test can be described thus: direct ELISA: rFAP coated directly on the plate, antibody titrated, OD 450 nm; the curve reaches no upper plateau [continued) H].
In test [15] the target is T3, bovine serum albumin (BSA). The test can be described thus: direct ELISA: BSA coated directly on the plate [continued) H].

T3 sequence (P02769 25-607 limits assumed): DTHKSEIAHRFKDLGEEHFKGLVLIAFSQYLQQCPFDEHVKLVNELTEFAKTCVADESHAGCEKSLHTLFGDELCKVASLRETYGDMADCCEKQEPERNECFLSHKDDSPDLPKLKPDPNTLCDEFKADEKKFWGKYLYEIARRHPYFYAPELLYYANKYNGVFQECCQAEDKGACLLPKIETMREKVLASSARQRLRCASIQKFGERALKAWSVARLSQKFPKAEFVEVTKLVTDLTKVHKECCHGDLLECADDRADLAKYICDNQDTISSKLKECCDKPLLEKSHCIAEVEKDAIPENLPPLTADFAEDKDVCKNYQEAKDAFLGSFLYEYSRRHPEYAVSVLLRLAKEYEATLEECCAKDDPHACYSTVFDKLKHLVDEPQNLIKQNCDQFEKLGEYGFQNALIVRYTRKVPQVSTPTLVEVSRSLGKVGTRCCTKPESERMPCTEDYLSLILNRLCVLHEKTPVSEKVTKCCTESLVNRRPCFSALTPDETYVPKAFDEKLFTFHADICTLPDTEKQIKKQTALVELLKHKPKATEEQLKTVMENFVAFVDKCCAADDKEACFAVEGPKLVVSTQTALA

B1: NI-206.27E8 (antibody, V domains shown)
VH: EVQLVESGGGLVEPGGSLRLSCAASGFTFSDAWMNWVRQAPGKGLEWVGRIKTKSDGGTTDYAAPVRGRFSISRDDSKNTLFLEMNSLKTEDTAIYYCFITVIVVSSESPLDHWGQGTLVTVSS
VL: SYELTQPPSVSVSPGQTARITCSGDELPKQYAYWYQQKPGQAPVLVIYKDRQRPSGIPERFSGSSSGTTVTLTISGVQAEDEADYYCQSAYSINTYVIFGGGTKLTVL
notes: Recombinant complete human IgG1; Cy5-labelled in flow cytometry
As usually defined, the EC50 is the concentration needed to bring the measured effect to its halfway point. On to B1, for which the EC50 in test [1] stood at 3.36 nM; in [3], 0.33 nM. Also, in [2], the binding result was “no binding”.

B2: NI-206.12G4 (antibody, V domains shown)
VH: EVQLVESGGGLVKPGGSLRLSCAASGFTFSDYYMSWIRQAPGKGLEWISYISSGSSYTNYADSVKGRFTISRDNAKKSVYLEVNGLTVEDTAVYYCARVRYGDREMATIGGFDFWGQGTLVTVSS
VL: B1 VL with E26A, K38S, R51S, Q52E, Y91D, I93G, N94G, Y96S, V97R
notes: as for B1
Consider B2, for which, in test [2], the binding result is given as “no binding”. In addition, the EC50 in [3] worked out at 1.4 nM.

B3: NI-206.6D3 (antibody, V domains shown)
VH: EVQLVESGGGLVKPGESLRLSCAASGFTFSKAWMNWVRQGPGKGLEWVGRVKSKTDGGTTDYAAPVKGRFTISRDDSKDTVFLQMNSLKTEDTAVYYCSIQFIVVGDRGRDDQYMDVWGKGTTVTVSS
VL: SYVLTQPPSVSVSPGQTARITCSGDALPKQYAFWYQQKPGQAPVIMIYKDNQRPSGIPERFSGSSSGTTVTLTISGVQTEDEADYYCQSADSTNTHVVFGGGTKLTVL
notes: as for B1
As for B3, the EC50 in test [1] was found to be 118 nM; in [4], 0.272 nM; in test [5], 3.54 nM; in test [3] it was 86.5 nM. Further, the binding result in [2] is on record as “no binding”.

B4: NI-206.59B4 (antibody, V domains shown)
VH: QVQLVQSGAEVKKPGASVKVSCKTSGYTFTDYYIHWVRQAPGQGLEWMGWINPNRGGTNYAQKFQGRVTMTRDTSIATAYMELSRLRSDDTAVYYCATASLKIAAVGTFDCWGQGTLVTVSS
VL: SYELTQPPSVSVSPGQTARITCSGDALSKQYAFWFQQKPGQAPILVIYQDTKRPSGIPGRFSGSSSGTTVTLTISGAQADDEADYYCQSADSSGTYVFGTGTKVTVL
notes: as for B1
Take B4: the results for the EC50 in test [1] and in test [3] were 0.044 nM and 0.096 nM, respectively. The binding result in test [2] and in test [6] was “no binding” each time.

B5: NI-206.18H2 (antibody, V domains shown)
VH: QVQLQESGPRLVKPSETLSLTCTVSGYSISNGYYWGWIRQPPGQGLEWIASVWHSGNTYHNPSLKSRVTILVDTLKNQFSLNLKSVTAADTALYYCARSYTRNDVGAFETWGQGTMVTVSS
VL: SYELTQPPSVSVSPGQTARIACSGDELPKRYAYWYQQKSGQAPVLVMYEDTKRPSGIPERLSGSSSGTVTTLTISGAQVEDEADYYCYSTAPSGNHTFVFGTGTRVTVL
notes: as for B1
B5: the EC50 in [7] is 1.33 nM; in [1] it was 0.272 nM; in test [9], 2.9 nM; in test [3], 3.54 nM. Moreover, the binding result in test [8] is “no binding”; in test [10], “binds”; in [11], “binds”; in [2], “no binding”.

B6: NI-206.22F7 (antibody, V domains shown)
VH: EVQLVETGGGVVQPGRSLRLSCAASGFSFSTHGMYWVRQPPGKGLEWVAVISYDGSDKKYADSVKGRFTISRDNSKNTVYLEMSSVRAEDTALYYCFCRRDAFDLWGQGTMVTVSS
VL: SYVLTQPPSVSVSPGQTARITCSGDALPKKYAYWYQQKSGQAPVLVIYEDTKRPSGIPERFSGSSSGTMATLTISGAQVEDEADYYCYSTDSSGNYWVFGGGTEVTVL
notes: Recombinant complete human IgG1
As for B6, the EC50 in test [2] turned out to be 0.12 nM. In addition, in [12], the binding result is “no binding”.

B7: NI-206.20A8 (antibody, V domains shown)
VH: EVQLVESGGGLVQPGGSLKLSCAGSGLDLSASAVHWVRQASGKGLEWIGRIRSKPNHYATTYLASVRGRFILSRDDSENTAYLQMNSLRTEDTAVYYCRIGILNSDHWGRGTLVTVSS
VL: QSVLTQPPSASGTPGQTVIISCSGSSSNLGRKTLNWYQQLPGAAPKLLIFKNDQRASGVPDRFSASKSGTSASLTISGLQSDDEADYYCGTWDDSLDNWVFGGGTKVTVL
notes: as for B6
As for B7, the EC50 in test [1] was 1.33 nM; in test [13] it was 118 nM; in test [14] it was 86.5 nM; in [3] it was 2.9 nM. The binding result in test [2] and in [15] was “no binding” throughout.

B8: NI-206.17A6 (antibody, V domains shown)
VH: QVQLQESGPGLVRSTETLSLTCLVSGDSINSHYWSWLRQSPGRGLEWIGYIYYTGPTNYNPSLKSRVSISLGTSKDQFSLKLSSVTAADTARYYCARNKVFWRGSDFYYYMDVWGKGTTVTVSS
VL: EIVLTQSPGTLSLSLGERATLSCRASQSLANNYLAWYQQKPGQAPRLLMYDASTRATGIPDRFSGSGSGTDFTLTISRLEPEDFAVYYCQQFVTSHHMYIFGQGTKVEIK
notes: Recombinant complete human IgG1 with a kappa light chain
With B8, the EC50 in test [1] is 50.2 nM; in [3] it was 10.5 nM. Further, in test [2], the binding result is “no binding”.
